These results are taken from patent publication US20250115681A1 (WESTLAKE UNIVERSITY, published 2025).

Where no end group is shown, it is not given here. [ ]: non-standard residue; d: D form. The star is where a group is joined. Biotin = O=C1N[C@H]2[C@H](CS[C@H]2CCCCC(=O)*)N1

The assay concerns the target T1, AALPET*G peptide with N-terminal biotinylation.
T1 construct: Synthetic sortase substrate peptide
T1 peptide: Biotin-AALPET[2‑hydroxyacetic acid]G
As to the kind of experiment: western blot of in vitro reaction product bands.

B1: mgSrtA (Ca2+-dependent) (enzyme)
chain: KPHIDNYLHDKDKDEKIEQYDKNVKEQASKDKKQQAKPQIPKDKSKVAGYIEIPDADIKEPVYPGPATREQLNRGVSFAEENESLDDQNISIAGHTFIGRPNYQFTNLKAAKKGSMVYFKVGNETRKYKMTSIRNVKPTAVGVLDEQKGKDKQLTLITCDDLNRETGVWETRKILVATEVK
notes: Engineered variant of wild-type sortase A, expressed in E. coli BL21 (DE3) with an N-terminal 6xHis tag; also called Ca^2+-dependent mgSrtA; not shown: N-terminal 6xHis tag from the pET-28a backbone
With B1, the binding result is “binds”.
